According to paper PMC6009097, “Design and biological characterization of novel cell-penetrating peptides preferentially targeting cell nuclei and subnuclear regions” (Beilstein Journal of Organic Chemistry, 2018):
Marks after values point to notes of the source that are not given here. Where no end group is shown, it is not given here.

Tests used:
[1] = Circular dichroism spectroscopy (secondary structure); type: physicochemical; conditions: 10 mM phosphate buffer pH 7.0 with TFE (50%), peptide 20 µM
Protocol: First, we performed a structural analysis by diluting all peptides to a concentration of 20 μM in phosphate buffer (pH 7.0), with or without the presence of the secondary structure inducing solvent trifluoroethanol (TFE).
Figure 1 Circular dichroism spectra of the novel peptides solved in 10 mM phosphate buffer (pH 7) (A), or phosphate buffer with the addition of TFE (50%) (B). Peptide concentration was 20 µM. (C) Helical wheel projections of the peptides N50-sC18* and NrTP-sC18*, respectively.
All peptides were analyzed in 10 mM potassium phosphate buffer (pH 7.0) with or without the addition of TFE (1:1 dilution) using a peptide concentration of 20 µM. Peptides were measured in a 0.1 cm quartz cuvette with a sensitivity of 100 mdeg in the range from 260 to 180 nm in 0.5 nm intervals. The scanning mode was continuous and a scanning speed of 50 nm/min was chosen. The results of pure buffer were subtracted from the spectra of the peptides. The ratio between the molar ellipticity at 222 nm and 207 nm was used to confirm an α-helical structure of peptides.

[2] = test system: MCF-7 cells; assay: Cytotoxicity of doxorubicin co-incubated with peptides (resazurin viability assay); type: cell-based; conditions: 48 h
Protocol: (§1) Fluorescence microscopic images after 30 min incubation in HeLa (A) and MCF-7 (B) cells with 10 μM CF-labeled peptides N50-sC18* or NrTP-sC18* co-incubated with 10 μg/mL doxorubicin at 37 °C, respectively. Cells treated with DOX alone served as negative control; Green: CF-labeled peptide; blue: Hoechst 33342 nuclear stain; red: doxorubicin; scale bar is 10 µm. (C) Cells were incubated for 48 h with DOX (1 µg/mL), or solutions out of peptides (10 µM) and DOX (1 µg/mL), or peptide solutions (10 µM) alone. Untreated cells served as negative control, cells treated for 10 min with 70% ethanol as positive control. Experiments were conducted in triplicate with n = 2.
Herein, the drug alone (1 μg/mL) or in presence of 10 μM solutions of the peptides sC18*, N50-sC18* and NrTP-sC18*, respectively, were incubated for 48 h with MCF-7 cells.
(§2) A total volume of 200 μL of cells (HeLa 40’000, MCF-7 50’000 cells per well) were seeded in 96-well plates and grown to 70–80% confluency. Afterwards, they were incubated with peptide or doxorubicin solutions (diluted in serum-free medium) in a total volume of 100 μL. In the wells that served as positive and negative controls, the medium was replaced by fresh medium without FBS. The plates were incubated for 24 h or 48 h at 37 °C. Afterwards, the positive control was treated with 100 μL of 70% EtOH for 10 min, and then all cells were washed with PBS. Cells were covered with 100 μL of a 10% resazurin solution in medium without FBS and incubated for 1–2 h at 37 °C. Afterwards, fluorescence was quantified by using a Tecan infinite M200 plate reader (excitation: 550 nm, emission: 595 nm).
Experiments were done in triplicate.

[3] = test system: HeLa cells; assay: Cellular uptake, confocal fluorescence microscopy; type: cell-based; conditions: 1 μM CF-labeled peptide, 37 °C; for cellular uptake (microscopy) at 1 μM: 30 and 120 min; for intracellular distribution at 1 μM: 30 or 120 min
[4] = test system: HeLa cells; assay: Resazurin-based cell viability assay; conditions: 24 h; for concentration up to which no significant toxicity was observed: 37 °C, serum-free medium, resazurin read-out, n = 3 in triplicate
Protocol: (§3) In the next step, the cytotoxicity profiles of the novel peptide chimera were investigated. Therefore, we chose two different cancer cell lines, namely breast cancer MCF-7 and cervix carcinoma HeLa cells, which were exposed for 24 h to various concentrations of the peptides sC18*, N50, N50-sC18*, NrTP and NrTP-sC18* (Figure 2).
(§4) Figure 2 Cytotoxicity profiles of the peptides in MCF-7 and HeLa cells. Cells were incubated for 24 h with different concentrations of peptide solutions. Untreated cells served as negative control, cells treated with 70% ethanol as positive control. Values from the positive control were subtracted from all data, and the untreated cells were set to 100%; assays were performed with n = 3 in triplicate.
as §2
To achieve comparably results, the positive control was subtracted from all data and the negative control was set to 100%, so that the results of the peptide-treated cells represent relative cell viability values in %. Experiments were done in triplicate.
Peptide solutions of 1, 5, 10,
25, 40, 55, 70, 85 and 100 µM were incubated with HeLa cells (24 h, 37 °C). Afterwards a resazurin-based cell
viability assay was performed according to the experimental part.
(1 picture or pasted object on this page, not shown here)

[5] = test system: HeLa cells; assay: Cellular uptake, confocal fluorescence microscopy; type: cell-based; conditions: 10 µM CF-labeled peptide, 30 min, 37 °C; for cellular uptake (microscopy): trypan blue quench
Protocol: (§5) Next, we analyzed the intracellular fate of the new peptide variants using confocal fluorescence microscopy. Thus, MCF-7 and HeLa cells were incubated with 10 µM peptide solutions at 37 °C and inspected after 30 min (Figure 3).
(§6) Figure 3 Cellular uptake in HeLa and MCF-7 cells. Cells were incubated for 30 min with 10 µM of CF-labeled peptide solutions. Green: CF-labeled peptide; blue: Hoechst 33342 nuclear stain; scale bar is 10 µm.
(§7) For microscopic analyses, a confocal laser scanning system (Nikon D-Eclipse C1) with an inverted microscope (Nikon Eclipse Ti) was used. Pictures were taken with a 60× oil immersion objective (N.A. 1.4, Plan APO VC; Nikon) using the software EZ-C1 3.91 from Nikon.
(§8) Cells were seeded in 350 μL medium in an 8-well ibidi plate (HeLa 45,000, MCF-7 70,000 cells per well) and were grown to 70–80% confluency. Then, the medium was removed and the cells were treated with the peptides and substances in various concentrations for the requested time. Cells were incubated at 4 °C or 37 °C and 10 min prior to the end of incubation 0.6 μL of Hoechst stain (bisbenzimide H33342, 1 mg/mL in H2O, sterile filtered) was added to each well to stain the cell nuclei. After removing the solutions, cells were quenched with 200 μL of 150 μM trypan blue solution (in acetate buffer) for 30 s. The stain was removed and the cells were washed twice with medium. After adding 300 μL of fresh medium, pictures were taken using a fluorescence confocal microscope. Images were edited in Image J 1.43m.

[6] = test system: MCF-7 cells; assay: Cellular uptake, confocal fluorescence microscopy; type: cell-based; conditions: MCF-7, 10 µM CF-labeled peptide, 30 min; for cellular uptake (microscopy) / intracellular distribution: 37 °C, confocal fluorescence; for cellular uptake (microscopy): trypan blue quench
Protocol: as §5, §6, §7, §8

[7] = test system: MCF-7 cells; assay: Resazurin-based cell viability assay; conditions: 24 h, 37 °C, serum-free medium, resazurin read-out, n = 3 in triplicate
Protocol: as §3, §4
as §2, with “Afterwards, the positive control was treated with 100 μL of 70% EtOH for 10 min, and then all cells were washed with PBS. Cells were covered with 100 μL of a 10% resazurin solution in medium without FBS and incubated for 1–2 h at 37 °C.” left out, “nm). […]” for “nm).”

[8] = test system: HeLa cells; assay: Cellular uptake quantified by flow cytometry; type: cell-based; conditions: 10 µM peptide, 30 min, 37 °C, serum-free medium, 10,000 cells, triplicate
Protocol: (§9) Figure 4 Cellular uptake in MCF-7 and HeLa cells was quantified by flow cytometry. Cells were incubated with 10 µM peptide solutions for 30 min at 37 °C.
(§10) Cells were seeded in 24-well plates (HeLa 170,000, MCF-7 200,000 cells per well) and grown to 70–80% confluency. Then, cells were treated with 400 μL of peptide solutions dissolved in serum-free medium for the appropriate time at 4 °C or 37 °C. Afterwards, the cells were washed twice with PBS and detached with Trypsin-EDTA 1× in PBS without phenol red for 3–5 min followed by adding 800 μL of indicator-free medium. Cells were resuspended and 200 μL of the suspension were transferred to a 96-well plate for measuring the fluorescence in the Guava® easyCyte flow cytometer (Merck). In each sample, 10,000 cells were measured and each experiment was done in triplicate. Cells treated with medium only served as negative control and their fluorescent signal was subtracted from all other samples in each set of experiment.

[9] = test system: MCF-7 cells; assay: Cellular uptake quantified by flow cytometry; type: cell-based; conditions: MCF-7, 10 µM peptide, 30 min, 37 °C, serum-free medium, 10,000 cells, triplicate
Protocol: as §9, §10

[10] = test system: several different cell lines; conditions: cited from earlier work
Protocol: Within their studies, the authors used higher concentrations, longer incubation times and other cell lines, what could probably explain the different results obtained in our study. In fact, it is very likely that working with increased concentrations of the NrTP sequence could probably improve the cell-penetrating capability of this peptide. Also for the N50 sequence alone, the internalization ability in several different cell lines was already determined [[2 ...

[11] = test system: HeLa cells; assay: Doxorubicin uptake on co-administration, fluorescence microscopy; type: cell-based; conditions: DOX 10 µg/mL, 30 min, 37 °C
Protocol: (§11) Doxorubicin is known to be fluorescent and this property was used to test if the peptides were able to enhance the intracellular uptake of the drug. Therefore, solutions out of DOX and the sequences N50-sC18* and NrTP-sC18* were incubated with HeLa and MCF-7 cells, respectively, and observed for red fluorescence afterwards (Figure 7A and 7B).
as §1, with “Figure 7 Uptake and delivery of DOX into HeLa and MCF-7 cells. Fluorescence” for “Fluorescence”
(§12) Cells were seeded in 350 μL medium in an 8-well ibidi plate (HeLa 45,000, MCF-7 70,000 cells per well) and were grown to 70–80% confluency. […] After adding 300 μL of fresh medium, pictures were taken using a fluorescence confocal microscope. […]

[12] = test system: MCF-7 cells; assay: as above; type: cell-based; conditions: MCF-7, DOX 10 µg/mL, 30 min, 37 °C
Protocol: as §11
as §1, with “Figure 7 Uptake and delivery of DOX into HeLa and MCF-7 cells. Fluorescence” for “Fluorescence”
as §12

[13] = MCF-7, peptide 10 μM + DOX 1 μg/mL

| Molecule | secondary structure (CD) [1] | effect of the peptide on the toxic effect / efficacy of DOX [2, 13] | cellular uptake (microscopy) at 1 μM [3] | concentration up to which no significant toxicity was observed ([4]; HeLa cells) [µM] | cellular uptake (microscopy) [5] | cellular uptake (microscopy) [6] | intracellular distribution at 1 μM [3] | concentration up to which no toxic effects were observed [7] [µM] | cellular uptake (flow cytometry) [8] | cellular uptake (flow cytometry) [9] | intracellular distribution [5] | intracellular distribution at 4 °C [6] | intracellular distribution [6] | further results |
| --- | --- | --- | --- | --- | --- | --- | --- | --- | --- | --- | --- | --- | --- | --- |
| GLRKRLRKFRNK [sC18*, shortened version of the cell-penetrating peptide sC18, lacking its four C-terminal amino acids] | α-helical character | could not enhance the efficacy of DOX | no uptake at all | ≤ 50 | only small dots were detectable | only small dots were detectable |  |  |  |  |  |  |  |  |
| VQRKRQKLMPGLRKRLRKFRNK [N50-sC18*] | formed α-helices | significantly improved |  | ≤ 50 | entered the cells extremely efficiently compared to sC18* alone | entered the cells extremely efficiently compared to sC18* alone | diffusely distributed within the cytosol and the nuclei of HeLa cells, and after 120 min it mainly accumulated within the nuclei | ≤ 100 | extremely high uptake | extremely high uptake | distributed within the whole cell cytosol, and accumulated particularly around the nucleus | mainly detectable within the nuclei | distributed within the whole cell cytosol, and accumulated particularly around the nucleus | R-value (ratio between the molar ellipticity at 222 nm and 207 nm) ([1]; CD): 0.83; number of viable cells after co-treatment with DOX ([2]; MCF-7, peptide 10 μM + DOX 1 μg/mL, triplicate with n = 2): 30% |
| VQRKRQKLMP [N50, reference compound] | random coil structure |  | no uptake at all | ≤ 50 | not noticeable present | not noticeable present |  |  |  |  |  |  |  | internalization ability / uptake [10]: very low |
| YKQCHKKGGKKGSGGLRKRLRKFRNK-NH2 [NrTP-sC18*] |  |  |  | ≤ 50 | entered the cells extremely efficiently compared to sC18* alone | entered the cells extremely efficiently compared to sC18* alone | accumulates in endosomes | ≤ 100 | extremely high uptake | extremely high uptake | strong accumulation within the nucleoli | evenly distributed throughout the whole cell, including strong accumulation in the nuclei | strong accumulation within the nucleoli | IC50 [4]: 53.7 ± 4.79 µM; effect on cell viability at 50 µM ([4]; HeLa cells, 50 µM): seemed to affect cell viability; effect on cell viability at higher concentrations ([4]; HeLa cells, concentrations above 50 µM): all cells were dead |
| COc1cccc2c1C(=O)c1c(O)c3c(c(O)c1C2=O)C[C@@](O)(C(=O)CO)C[C@@H]3O[C@H]1C[C@H](N)[C@H](O)[C@H](C)O1 [doxorubicin] |  |  |  |  |  |  |  |  |  |  |  |  |  | red fluorescence of DOX in cells, DOX only [11]: Minor red fluorescence; red fluorescence of DOX in cells, DOX only [12]: Minor red fluorescence; amount of viable cells, doxorubicin alone ([2]; MCF-7, DOX 1 μg/mL, triplicate with n = 2): about 60% |
